Source: patent US20180022815A1

Biological target: BCMA and CD138 on H929 cells
Assay: flow cytometry on H929 cells, sheep antihuman Ig-FITC secondary

- percent of H929 cells stained ("efficiency"): 84.8%
B1: bi-specific CD138/BCMA-IgG (dual CD138 scFv - 218S linker - BCMA scFv fused with a human IgG Fc) (bispecific antibody, not shown: a dimerising Fc or GST)
chain: DIQMTQSTSSLSASLGDRVTISCSASQGINNYLNWYQQKPDGTVELLIYYTSTLQSGVPSRFSGSGSGTDYSLTISNLEPEDIGTYYCQQYSKLPRTFGGGTKLEIKGSTSGSGKPGSSEGSTKGQVQLQQSGSELMMPGASVKISCKATGYTFSNYWIEWVKQRPGHGLEWIGEILPGTGRTIYNEKFKGKATFTADISSNTVQMQLSSLTSEDSAVYYCARRDYYGNFYYAMDYWGQGTSVTVSSGSTSGSGKPGSSEGSTKDIVLTQSPASLAVSLGDRATINCRASESVSVIGAHLIHWYQQKPGQPPKLLIYLASNLETGVPARFSGSGSGTDFTLTISSLQAEDAAIYYCLQSRIFPRTFGQGTKLEIKGSTSGSGKPGSSEGSTKGQVQLVQSGSELKKPGASVKVSCKASGYTFTDYSIQWVRQAPGQGLEWMGWIQTETREPAYAYDFRGRFVFSLDTSVSTAYLQISSLKAEDTAVYYCALDYSYAMDYWGQGTLVTVSS
